B1: WDR74 dsDNA (dsDNA)
DNA 1: CGTTCCTGGAAGTACTGCAATACCAGGTCGATGCGTGGAGTGGACGGAGCAAGCTCCTATTCCATCTCCTATTTCCAAAAATCCA
DNA 2: TGGATTTTTGGAAATAGGAGATGGAATAGGAGCTTGCTCCGTCCACTCCACGCATCGACCTGGTATTGCAGTACTTCCAGGAACG
B2: LINC00869 dsDNA (dsDNA)
DNA 1: TGTAAAGGGTGAGGCATATGAGGCTGCGGCGGGGCGGAGGGGCGTGAGCTTATACTTATGTTTATCTGGCAGAAGAAATGTTATG
DNA 2: CATAACATTTCTTCTGCCAGATAAACATAAGTATAAGCTCACGCCCCTCCGCCCCGCCGCAGCCTCATATGCCTCACCCTTTACA
B3: CCND1 dsDNA (dsDNA)
DNA 1: CAGTAGCAGCGAGCAGCAGAGTCCGCACGCTCCGGCGAGGGGCAGAAGAGCGCGAGGGAGCGCGGGGCAGCAGAAGCGAGAGCCG
DNA 2: CGGCTCTCGCTTCTGCTGCCCCGCGCTCCCTCGCGCTCTTCTGCCCCTCGCCGGAGCGTGCGGACTCTGCTGCTCGCTGCTACTG

target: GST-PC4 WT (Homo sapiens, UniProt P53999 2-127); experiment: EMSA

Binding result, no binding:
B1
B2
B3
